Results published in the nanobody polyreactivity screen of Harvey et al. (2022).

Experiment: yeast display, Sf9 membrane polyspecificity reagent, FACS + sequencing; frameworks hold sequencing errors
In short: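 In a synthetic yeast display library (Saccharomyces cerevisiae BJ5465), nanobody expression was induced with galactose for 36–48 hours. FACS gates were set low and high (top ~1%) using anti-HA fluorescence for expression and streptavidin fluorescence for binding of the Sf9 membrane reagent. Each polyreactivity label is drawn from the gate of origin.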

Sequence | polyreactivity (PSR sort gate)
QVQLVESGGGLVQAGGSLRLSCAPSGRIFYSNDMGWYRQAPGKERELVAAIRDSAGSTRYADSVKGRFTISRVNAKNTVYLQMNSLKPEDTAVFYGHKDYVSIYFEYLDDYWGQGTQVTVSS | low polyreactivity
QVQLVESGRGLVQAGVSLRLSCAASGPTFRGNVMGRYRKAPGKERELVAAINWTGSSTYYADSVKGGFTISRDNAKNTVYLQMNSLKPEDTAVDYCATRIGPHGGGLPRDYWGQGTQVTVSS | low polyreactivity
QVQLVESGGGLVQAGGSLRLSCAASGNTFTWYTIGWYRQAPGKERELVAVITSDGSKYYADSVKGRFTISRDNAKNTFYLQMNSLKPEVTAVYYCTVGGGTNYGYGYWYGFYYWGQGTQVTVYS | low polyreactivity
QVQLVESGGGLVQAGGRLRLSCAASGRTFVYNALGWYRQAPGKERELVAAISQSGGSTYYADSVKGRFTISRDNAKITVYFQMNSLKPEDTAVYYCADRYKTGSYVRYNFWGQGTQVTVSS | high polyreactivity
QVHLVESGGGFVQAGGSLRLSCAASGSIFVINGMGWYRQAPGKERELVAAISSRGGDTYYADSVKGRFTISRDNAKNTVYLQMNSLKPEDTAVYYCNARYYTSYDYWGQGTKVTVSS | low polyreactivity
QVQLVESAGGLVQAGGSLRLSCAASGLILHINTMGWYRQAPGKERELVAAISWSGDSTYYADSVKGRFTISRDNAKNTVYLQMNSLKPDDTAVYYCTTDYGHTYLYGYDYWGQGTQVTVSS | high polyreactivity
QVQLVESCGGLVQAGGSLRLSCAASGSIFRSFAMGWYREAPWKERELVAAISSGGRTKYADSVKGRFTISRDNAKNTVYLQMNSLKPEDTAVYYCAARVNVKYYGFYYWGQGTQVTVSS | high polyreactivity
QVQLVESGGGLVQAGGSLRLSCAASGRTFYKYGMGWYRQAPGKERELVARINSNGGSTYYADSVKGRFTISRDNAKNTVYLQMNSLKPADTAVYYCARSYVRSYGYYYWGQGPQVTVSS | low polyreactivity
QVQLVESGGGLVQAGGSLRLSCAASGLTFPWYAMGWYRQAPGKERELVAGISWSGGSTYYADSVKGRFTISRDNAKNTVYLQMNSLKPEDTAVYYCAARVWYYDYWGQGTQVTVSS | high polyreactivity
QVQLVESGGGLVQAGGSLRLRCAASGSIFKSNAMGWYRQAPGKERELVAAISNGGITNYADSVKGRFTISRDNAKNTVYLQMNSLKPEDTAVYYCATSDVREIWVDYCGQGTQVTVSS | low polyreactivity
QVQLVESGGGLVQAGGSLPLSCAASGSTFNKYTMGWSRQPPGKERELVAAITSGDSTYYADSVKGRFTISRDNAKNTVYLQMNSLKPDDTAVYYCAKSLRAYRHVIYGKPFYSWGQGTQVTVSS | low polyreactivity
QVQLVESGGGLVQAGGSLRLSCAASGRTFASNAMGWSRQAPGKERELVAAISVTGGRTYYADSVKGRFTISRDNAKNTVYLLMNSLKPEDTAVYYCAKVTKLDPYSYDYWGQGTQVTVSS | low polyreactivity
QVQLVESGGGLVQAGGSLRLSCAASGITFVLYAMGWYRQAPGKERELVAAISSGGRTKYADSVKGRFTISRDNAKNTVYLQMNSLKPEDTAVYYCATKTRYLYPAYYYWGQGTQVTVSS | high polyreactivity
QVQLVESGGGLVQAGGSLRLSCAAYGRTFGRYAMGWYRQAPGKERELVAVINGGGSTYYADSVKGRFTISRDNAKNTVYLQMNSLKPEDTAVDYCAVGGYTRTGGWFDYWGQGTQVTVSS | high polyreactivity
QVQLVESGGGLVQAGGSLRLSCAASGSTFVRYTMGWYRQAPGKERELVAGITGGGSTNYADSVKGRFTISRDNAKNTVYLQMNSLKPEDTAVYYCAADLWWERAYPEYDYWGQGTQVTVSS | low polyreactivity
QVQLVESGGGLVQAGGSLRLSCAASGFIFDYYAMGWYRQAPGKEREFVAAITWDGGSTYYADSVKGRFTISRDNAKNTVYLQMNSLKPEDTAVYYRAAETWGEYGYWGQGTQVTVSS | low polyreactivity

Sequence | polyreactivity (PSR sort gate)
QVQLVESGGGLVQAGGSLRLSCAASGSIFSLYAMGWYRQAPGKERELVAAISQSGDSTFYADSVKGRFTISRDHAKNTVYLQMNSLKPEYTAVSYCAADPRNKAWKWDDYWGQGTQVTVSS | low polyreactivity
QVHLVESGGGLVQAGGSLRLSCAASGRTIDRNTMGWYRQAPVKERELVATITWSVGRTYYADSVKGRFTISRDNGKITVYVQMISMKPEDTGVYFCAAGIYAYKYESWGHGTQVTVSS | high polyreactivity
QVQLVESGGGLVQAGGSLRLSCAASGSTFTLNAMGWYRQAPGKERELVADISWSSGRTYYADSVKGRFTISRDNAKNTVYFQMNSLKPEDTAVYYCATDDFWNVKFYAYYPEFDYWGQGTQVTVSS | low polyreactivity
QVQLVESRGGLVQAGGSLRLSCAASGRIFGDNAMGWSRQAPGKEREFVATINGSGGSTYYADSVKGRFTISRDNAKNTVYLQMNSLKPEDTAVYYCFVYGYVPYNYWGQGTQVTVSS | low polyreactivity
QVQLVESWGGLVQAGGSLRLSCAASGNTIIRYAMGWYSQAPGKERELVAAISRSGGRTYYADSVKGRFTISRDNAKNTVYLQMNSLKPEDTAVYYCAAKIYIPRGYDYWGQGTQVTVSS | high polyreactivity
QVQLVESGGGLVQAGGSLRLSCDASGIFVGYTLGWYRQAPRKERELVAAIRWTDGSTYYADSVKGRFTISRDNAKNTVYLQRNSLNPEDTAVYDCGADSNDPARYYYGDEFEDEYWGQGTQVTVSS | low polyreactivity
QVQLVESGGCLVQAGGSLRLSCAASGRIYIGYAMGWYRQAPGKERELVAAITTGGRTSYAVSVKGRFTISRDNAKNTVYLQMNSLKPVDTAVYYCAKRKSYNFPTRRPYYRRYYYWGQGTQVTVSS | high polyreactivity
QVQLVESGGGLVQAGGSLRLSCAASGSTFGVNAMGWYRQAPGKERELVADMSFRTDSTYYADSVKGRFTISRDNAKNTVYLQMNRLNPEDTAVYYCAAEVPYYYPGFYSYYDDSDYWGQGTQVTVSS | low polyreactivity
QVQLVESGGGLVQAGGSLRLSCAASGSTFYGNAMGWYRQAPGKERELVAAITWGDASTYYADSVKGRFTISRDNAKNTDYLQMNSLKPEDTAVYYCAVDESYGSSSDMDYWGQGTQVTVSS | low polyreactivity
QVQLEESGGGLVQAGGSHRLICAASGSTFEYYAMGWYRQAPGKERELVAAINGIGGSTTYADSVKGRFTISRDTAKYTVYLQMNSLKPEDTAVYYCNADVARSKSQASAYDYWGQGTQVNVSS | low polyreactivity
QFQLVESGGGLVQAGGSLRLSCAASGIMFGYYAMGWYRQAPGKERELVAALTRSGGSTYYADSVKGRFTISRDNAKNTVYLQLNSLKPEDTALYYCNGDDDGRVSSTIVEYWGQGTQVTVSS | low polyreactivity
QVQLVESGGGLVQAGGSLRLTCAASGIIFRGYVMAWYRQAPGKERELVAAISTSGGRTSYADSVKGRFTISRDNAKNTVYLQMNSLKPEDTAVYYCKTRVTGNRLGYYYWGQGTQVTVSS | high polyreactivity
QVQLGESGGGLVQAGGSVRLSCAASGGTFGWYAMGWYRPAPGKERELVAAITSSGGTTFDADSVKGRFTISRDNAKNTVYLQMNSLKPEDTAVYYCAKRGQRPTRYKLGKYDYWGQGTQVTVSS | high polyreactivity
QVQLVESGGGLVQAGGSLRLSCAASGSIFWYNTMGWYRPAPGKERELVAAISKSGTSTYYADSVKGRFTISRDNAKNTVYLQMNSLKPEDTAVYYCAAALPGYGDYYYWGQGTQVTVSS | high polyreactivity
QVQLVESGGGLVQAGGSLRLSCAASGRIFNYYAMGWYRQAPGKERELVAAINSGGSTYADSVKGRFTISRDNAKNTVYLQMNSLKPEDTAVYYCAKDGQLQSGRERPSGYDHWGQGTQVTVSS | low polyreactivity
